Residue numbers refer to the chain shown, from its start. Each block holds one binder with its values, some of them ahead of it.
Columns and labels:
[1] = target: T1, His6-Mad2 (containing the C79S and C106S mutations) (human, UniProt Q13257 1-205, C79S | C106S); assay: pull-down; Mad2 dissociation assay: MBP1 or Cdc20N coupled to SulfoLink resin, loaded with His6-Mad2 (0.5 mg/ml), washed, then TRIP13 and ΔN35-p31comet with 1 mM ATP for 30-60 min; Reaction Buffer (25 mM Tris pH 7.5, 200 mM NaCl, 10 mM MgCl2, 1 mM DTT, 5% glycerol, 0.05% Tween), room temperature; bound proteins by SDS-PAGE and Coomassie; settings: both partners purified
T1 construct: Mad2, human; C79S and C106S to avoid disulfide formation in vitro; The His6 tag was not cleaved; also called C-Mad2; source: E. coli BL21 (DE3), purified (Ni-NTA, Resource Q, Superdex 200 Increase); not shown: His6, N-terminal, kept
T1 sequence (Q13257 whole entry C79S/C106S): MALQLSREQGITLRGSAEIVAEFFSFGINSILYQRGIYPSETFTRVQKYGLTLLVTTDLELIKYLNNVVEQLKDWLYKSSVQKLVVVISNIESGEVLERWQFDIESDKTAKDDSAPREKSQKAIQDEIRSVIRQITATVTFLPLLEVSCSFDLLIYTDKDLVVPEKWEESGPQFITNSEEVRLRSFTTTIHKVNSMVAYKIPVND

[2] = target: the molecule itself; assay: SEC; gel filtration column in the presence of ATP

B3: TRIP13 wild type (enzyme, human, UniProt Q15645 1-432, looked up)
chain: MDEAVGDLKQALPCVAESPTVHVEVHQRGSSTAKKEDINLSVRKLLNRHNIVFGDYTWTEFDEPFLTRNVQSVSIIDTELKVKDSQPIDLSACTVALHIFQLNEDGPSSENLEEETENIIAANHWVLPAAEFHGLWDSLVYDVEVKSHLLDYVMTTLLFSDKNVNSNLITWNRVVLLHGPPGTGKTSLCKALAQKLTIRLSSRYRYGQLIEINSHSLFSKWFSESGKLVTKMFQKIQDLIDDKDALVFVLIDEVESLTAARNACRAGTEPSDAIRVVNAVLTQIDQIKRHSNVVILTTSNITEKIDVAFVDRADIKQYIGPPSAAAIFKIYLSCLEELMKCQIIYPRQQLLTLRELEMIGFIENNVSKLSLLLNDISRKSEGLSGRVLRKLPFLAHALYVQAPTVTIEGFLQALSLAVDKQFEERKKLAAYI
notes: TRIP13, human; its own AUC and gel filtration show no discrete oligomer; also called TRIP13 WT; source: E. coli BL21 (DE3), purified (Ni-NTA, TEV, Resource Q, Superdex 200); not shown: His6, N-terminal, cleaved
binding result [2]: binds

B4: TRIP13 G320A (enzyme, human, UniProt Q15645 1-432, looked up)
chain: B3 chain with G320A
notes: TRIP13, human; source: E. coli BL21 (DE3), purified (Ni-NTA, TEV, Resource Q, Superdex 200); not shown: His6, N-terminal, cleaved
binding result [2]: binds

Other lines, results leading:

binding result [1]: binds
B1: MBP1 peptide (peptide)
peptide: SWYSYPPPQRAVC
notes: Coupled to SulfoLink Coupling Resin in the bead assays; source: synthetic peptide (Protein Chemistry Technology Core, UTSW)

binding result [1]: binds
B2: Cdc20N-His6 (residues 1-170 of human Cdc20) (domain or fragment, UniProt Q12834 1-170, looked up)
chain: MAQFAFESDLHSLLQLDAPIPNAPPARWQRKAKEAAGPAPSPMRAANRSHSAGRTPGRTPGKSSSKVQTTPSKPGGDRYIPHRSAAQMEVASFLLSKENQPENSQTPTKKEHQKAWALNLNGFDVEEAKILRLSGKPQNAPEGYQNRLKVLYSQKATPGSSRKTCRYIPS
notes: Cdc20, human, residues 1-170; Coupled to SulfoLink Coupling Resin in the bead assays; also called Cdc20 N-terminal 170-residue fragment; source: E. coli BL21 (DE3), purified from 8 M urea (Ni-NTA), dialysed
